According to PMC11031989, “Structural determinants for activation of the Tau kinase CDK5 by the serotonin receptor 5-HT7R” (Cell Communication and Signaling : CCS, 2024):
Positions count from the first letter of the chain named. In names and notes the source's numbering stands.

B1: HA-tagged 5-HT7R (serotonin receptor 7), wild type (receptor, UniProt P32304 1-448, looked up)
chain: MMDVNSSGRPDLYGHLRSLILPEVGRRLQDLSPDGGAHSVVSSWMPHLLSGFPEVTASPAPTWDAPPDNVSGCGEQINYGRVEKVVIGSILTLITLLTIAGNCLVVISVCFVKKLRQPSNYLIVSLALADLSVAVAVMPFVSVTDLIGGKWIFGHFFCNVFIAMDVMCCTASIMTLCVISIDRYLGITRPLTYPVRQNGKCMAKMILSVWLLSASITLPPLFGWAQNVNDDKVCLISQDFGYTIYSTAVAFYIPMSVMLFMYYQIYKAARKSAAKHKFSGFPRVQPESVISLNGVVKLQKEVEECANLSRLLKHERKNISIFKREQKAATTLGIIVGAFTVCWLPFFLLSTARPFICGTSCSCIPLWVERTCLWLGYANSLINPFIYAFFNRDLRTTYRSLLQCQYRNINRKLSAAGMHEALKLAERPERSEFVLQNCDHCGKKGHDT
notes: Serotonin receptor 7 (5-HT7R), wild type; pcDNA3.1(+) vector; also called 5-HT7R WT; WT; source: N1E-115 cells, transfected, in lysate; not shown: HA, N-terminal, kept
B2: HA-tagged 5-HT7R F278A;F281A (receptor, UniProt P32304 1-448, looked up)
chain: B1 chain with F278A, F281A
notes: Serotonin receptor 7 (5-HT7R) with F278A and F281A in intracellular loop 3; Primers are in Additional file 1; also called F278;F281A; source: N1E-115 cells, transfected, in lysate; not shown: HA, N-terminal, kept
B3: HA-tagged 5-HT7R F281A (receptor, UniProt P32304 1-448, looked up)
chain: B1 chain with F281A
notes: Serotonin receptor 7 (5-HT7R) with F281A in intracellular loop 3; Primers are in Additional file 1; source: N1E-115 cells, transfected, in lysate; not shown: HA, N-terminal, kept

Assays:
[1] = target: T1, mCherry-tagged CDK5 (cyclin-dependent kinase 5) (UniProt Q00535 1-292); assay: co-IP; N1E-115 cells co-transfected with mCherry-tagged CDK5 and HA-tagged 5-HT7R constructs; IP with anti-mCherry antibody, Western blot with anti-HA antibody; ratio of co-precipitated receptor normalized to the WT sample; also done after knock-down of Gαs by shRNA (Additional file 5); conditions: partners not purified
T1 construct: Cyclin-dependent kinase 5 (CDK5); Printed both as CDK5-mCherry and as mCherry-CDK5; also called CDK5-mCherry; mCherry-CDK5; source: N1E-115 cells, transfected, in lysate

[2] = target: T1, mCherry-tagged CDK5 (cyclin-dependent …); assay: cell-based or functional assay

Binder	co-precipitated receptor, normalized to WT [1] [%]	phosphorylation of endogenous CDK5 at S159 (read-out for CDK5 activation) in N1E-115 cells expressing the HA-tagged receptor, % of WT [2] [%]
B1	100	–
B2	64.5	49.2
B3	73.8	45.7
